According to patent US11046988B2, “Process for the modification of a glycoprotein using a β-(1,4)-N-acetylgalactosaminyl transferase or a mutant thereof” (Synaffix B.V., priority 2014, dated 2021):

Columns and labels:
[1] = Coupled glycosyltransferase assay (R&D Systems Glycosyltransferase Activity Kit, malachite green, 620 nm): transfer of F2-GalNAz to GlcNAc; type: biochemical; set-up: Data from the determination of the specific activity: unit not given here; conditions: for Data from the determination of the specific activity: GlcNAc 20 mM, UDP-F2-GalNAz 500 μM, 20 min, room temperature, plate read at 620 nm; for specific activity: UDP-F2-GalNAz 500 μM to GlcNAc 20 mM, 5 mM MgCl2 and 5 mM MnCl2, pH 7.5, linear regression; for transferase activity compared with GalT(Y289L): transfer of F2-GalNAz from UDP-F2-GalNAz (18) to GlcNAc, FIG. 7 / FIG. 8
Description: In brief, the glycosyltransferase kit determines the activity of a particular glycosyltransferase by means of a coupled assay that detects the release of liberated UDP upon transfer of the donor sugar (from the sugar-UDP nucleotide) to an acceptor sugar. In more detail, the UDP that is liberated upon transfer of sugar is hydrolyzed by a particular enzyme (CD39L3/rectonucleoside triphosphate diphosphohydrolase-3, also known as NTPDase-3) thereby generating UMP and one equivalent of phosphate (Pi). The latter phosphate in turn is detected by malachite green, which is also added to the mixture. A green color develops in proportion to the amount of inorganic phosphate released and the absorbance of the color at 620 nm is measured as a direct measure of the activity of the glycosyltransferase. In the present case, transfer of F2-GalNAz from the UDP-substrate to GlcNAc on the protein is accompanied by release of UDP, which is hydrolyzed by CD39L3 and the generated phosphate. Preferably, the derived or wild type β-(1,4)-GalNAcT enzyme used in the process according to the invention has at least 30%, 33%, 50%, 75%, 100%, 150%, 200%, or more preferably at least 300% of the UDP-F2-GalNAz transfer activity as compared to the UDP-F2-GalNAz transfer activity of the β-(1,4)-galactosyltransferase mutant enzyme Bos taurus GalT-Y289L (SEQ ID NO: 1), wherein the transfer activity is assessed using the R&D Systems Glycosyltransferase Activity Kit and applying the conditions as indicated in detail in Example 18 and using equal amounts of the enzyme to be tested and β-(1,4)-galactosyltransferase mutant enzyme Bos taurus GalT-Y289L (SEQ ID NO: 1).
Specific activity of enzymes was determined by a coupled glycosyltransferase procedure as described by Wu et al. in Glycobiology 2010, 21, 723-733, incorporated by reference, and commercially available as a kit from R&D system.
In short, a glycosyltransferase reaction was carried out in 50 μL of reaction buffer (25 mM Tris, 150 mM NaCl, 5 mM MgCl2 and 5 mM MnCl2, pH 7.5) in a 96-well plate at room temperature for 20 min. To determine the kinetic parameters of a glycosyltransferase, multiple reactions with varying amounts of the enzyme were carried out simultaneously (0.01, 0.02, 0.04, 0.06, 0.08, 0.10 and 0.12 μg of enzyme) in the presence of fixed amounts of all other components (GlcNAc: 20 mM, UDP-F2-GalNAz: 500 μM), including the coupling phosphatase 1 (ENTPD3/CD39L3) (2.5 μL of 20 ng/μL solution). A well containing all components except for the enzyme served as a blank control. The reactions were initiated by adding the substrates and phosphatase to the enzyme and terminated by the addition of 30 μL of Malachite reagent A and 100 μL of water to each well. The color was developed by the addition of 30 μL of Malachite reagent B to each well followed by gentle mixing and incubation at room temperature for 20 min. Following color development, the plate was read at 620 nm with a multi-well plate reader. A phosphate standard curve was also performed to determine the conversion factor between the absorbance and the inorganic phosphate contents. Preparation of UDP-F2-GalNAz is described in Example 13.
The specific activity of the GalNAcTs described herein were compared to GalT(Y289L), an enzyme known to transfer UDP-GalNAz as previously disclosed in WO 2007/095506 and WO 2008/029281 (both Invitrogen Corporation).
A graph depicting the conversion (in pmol/min/m) plotted against the amount of enzyme is shown in FIG. 7 (for Table 1) and FIG. 8 (for Table 2). From these plots specific activities were calculated by linear regression. […]

[2] = system: GlcNAc-Man5-GlcNAc-GlcNAc(Fuc)-substituted trastuzumab (formula 26); assay: Glycosyltransfer of GalNAz to GlcNAc-Man5-GlcNAc-GlcNAc(Fuc)-substituted trastuzumab, MS analysis; type: biochemical; conditions: UDP-GalNAz 0.5 mM, CeGalNAcT 0.1 mg/mL, 10 mM MnCl2, pH 8.0, 16 hours, 30° C.
Method: Trastuzumab transiently expressed in the presence of swainsonine as described in Example 18 (10 mg/mL) was incubated with neuraminidase (0.5 mU/mg IgG) from Vibrio cholerae (commercially available from Sigma-aldrich) in 100 mM sodium acetate pH 6.0 and 2 mM CaCl2 for 16 hrs, which led to complete removal of the sialic acid (two major heavy chain products of 50712 and 50874 Da which correspond to approximately 20 and 70% of the total heavy chain products). When the same reaction was performed in the presence of β(1,4)-galactosidase (3 mU/mg IgG) from Streptococcus pneumoniae (commercially available from Calbiochem), a single major heavy chain product was observed corresponding to trastuzumab with a GlcNAc-Man5-GlcNAc-GlcNAc(Fuc)-substituted heavy chain (c=d=0, 50712 Da, ±90% of total heavy chain product, and minor heavy chain products between 50700 and 50900 Da).
A solution of 50 μg (modified) IgG, 1 M Tris-HCl pH 8.0, 1 mM EDTA and 30 mM DTT with a total volume of approximately 70 μL was incubated for 20 minutes at 37° C. to reduce the disulfide bridges allowing to analyze both light and heavy chain. If present, azide-functionalities are reduced to amines under these conditions. […] The reduced IgG was analyzed by electrospray ionization time-of-flight (ESI-TOF) on a JEOL AccuTOF. […]

Molecule: CeGalNAcT: truncated Caenorhabditis elegans β-(1,4)-GalNAcT, amino acids 30-383 of SEQ ID NO: 2 (SEQ ID NO: 6)
- Data from the determination of the specific activity ([1]; 0.01 μg enzyme): 0.031
- Data from the determination of the specific activity ([1]; 0.02 μg enzyme): 0.066
- Data from the determination of the specific activity ([1]; 0.04 μg enzyme): 0.14
- Data from the determination of the specific activity ([1]; 0.06 μg enzyme): 0.162
- Data from the determination of the specific activity ([1]; 0.08 μg enzyme): 0.265
- Data from the determination of the specific activity ([1]; 0.1 μg enzyme): 0.301
- Data from the determination of the specific activity ([1]; 0.12 μg enzyme): 0.348
- specific activity [1]: 426 pmol/min/µg
- activity for transfer of an azido-GalNAc derivative, times higher than GalT(Y289L) ([1]; relative to GalT(Y289L), FIG. 7): 10 times
- transferase activity compared with GalT(Y289L) [1]: significantly higher
- conversion into GalNAz-GlcNAc-Man5-GlcNAc-GlcNAc(Fuc)-substituted trastuzumab [2]: complete conversion
- major heavy chain product (GalNAz-GlcNAc-Man5-GlcNAc-GlcNAc(Fuc)-substituted) [2]: ~90 % of the total heavy chain products

B1: TnGalNAcT: truncated Trichoplusia ni β-(1,4)-GalNAcT, amino acids 33-421 of SEQ ID NO: 4 (SEQ ID NO: 8) (protein)
chain: SPLRTYLYTPLYNATQPTLRNVERLAANWPKKIPSNYIEDSEEYSIKNISLSNHTTRASVVHPPSSITETASKLDKNMTIQDGAFAMISPTPLLITKLMDSIKSYVTTEDGVKKAEAVVTLPLCDSMPPDLGPITLNKTELELEWVEKKFPEVEWGGRYSPPNCTARHRVAIIVPYRDRQQHLAIFLNHMHPFLMKQQIEYGIFIVEQEGNKDFNRAKLMNVGFVESQKLVAEGWQCFVFHDIDLLPLDTRNLYSCPRQPRHMSASIDKLHFKLPYEDIFGGVSAMTLEQFTRVNGFSNKYWGWGGEDDDMSYRLKKINYHIARYKMSIARYAMLDHKKSTPNPKRYQLLSQTSKTFQKDGLSTLEYELVQVVQYHLYTHILVNIDERS
modifications: TnGalNAcT(33-421)
- Data from the determination of the specific activity ([1]; 0.01 μg enzyme): 0
- Data from the determination of the specific activity ([1]; 0.02 μg enzyme): 0.007
- Data from the determination of the specific activity ([1]; 0.04 μg enzyme): 0.025
- Data from the determination of the specific activity ([1]; 0.06 μg enzyme): 0.051
- Data from the determination of the specific activity ([1]; 0.08 μg enzyme): 0.073
- Data from the determination of the specific activity ([1]; 0.1 μg enzyme): 0.083
- Data from the determination of the specific activity ([1]; 0.12 μg enzyme): 0.102
- specific activity [1]: 140 pmol/min/µg
- transferase activity compared with GalT(Y289L) [1]: significantly higher
